Laboratory results from the nanobody polyreactivity screen of Harvey et al. (2022).

Test: yeast display, Sf9 membrane polyspecificity reagent, FACS + sequencing; frameworks hold sequencing errors
Summary of the method: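 A nanobody's polyreactivity label depends on the gate it was sorted from. Yeast display cells were stained with 10% biotinylated, detergent-solubilized Sf9 membrane reagent for 1 hour at 4 °C, enriched on streptavidin microbeads and sorted by FACS. The low and high (top ~1%) gates were set on anti-HA fluorescence for expression and streptavidin fluorescence for reagent binding.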

Sequence	polyreactivity (PSR sort gate)
QVQLVESGGGLVQAGGSLRLSCAASGFTFSSYAMGWYRQAPGKERELVAAITQSGGRTYYADSVKGRFTISRDNAKNTVYLQMNSLKPEDTADYYCAADVTLWYDYWGQGTQVTVSS	low polyreactivity
QVQLVESGGGLVQAGGSLRLSCAASGRPFRGYAMGWYRQAPGKDRELVAAITRSGGSTYYADSVKGRFTISRDNAKNTVYVQMTSLKPEDTAVSYCNAVRHAQSRWPYGYWGQGTQVTVSS	high polyreactivity
QVQLVESGGGLVQAGGSLRLSCAASGRTFWGYGMGWYRQAPGKERELVATISSGGSTYYADSVKGRFTISRDNAKNTVYLQMNSLKPEDTAVYYCAARPPRTYWRYQSDYWGQGTQVTVSS	high polyreactivity
QFQLVETGGGLDQAGGSLRLSCAASGTTFGVYAMGWYRQAPGKERELVAVITSRGGSTYYADSVKGRFTISRDNAKNTVYLQMNSLIPEDTAVYYCNVDSAYRRPPYDYWGQGTQVTVSS	high polyreactivity
QVQLVESGGGLVQAGGSLRLSCAASGRILELNAMGWYRQAPGKERELVAGISNSGDTTYYADSVKGRFTISRDNAKNTVYLQMNSLKPEDTAVYYCNADGVVTWYDYWGQGTQVTVSS	low polyreactivity
QVQLVESGGGLVQAGGSLRLSCAASGITLDNYVMGWYRQAPGKERELVAAISRTSGRTYYADSVKGRFTISRDNAKNTVYLQMNSLKPEDTAVYYCAAETGYTIRYDYWGQGTQVTVSS	high polyreactivity
QVQLVESGGGLVQAGGSLRLSCAASGSIFAGNAMGWYRQAPGKERELVAAISRRGGSTYYADSVKGRFTISRDNAKNTVYLQMNSLKPEDTAVYYCNALLRYAYHAAYGYWGQGTQVTVSS	high polyreactivity
QVQLVESGGGLVQAGGILRLSCASSGITFRQYAMEWYRQAPGKERELVATITSRGGSTYYADSVKGRFTISRDNAKNSVYLQMISLKPEDTADYYCAAKTPTKDRGSDFDYWGQCTQVTVSS	high polyreactivity
QVQLVESGGGLVQAGGSLRLSCAASGSIFYNNAMGWYRQAPGKERELVAAITIGGSTNYADSVKGRFTISRDNAKNTVYLQMNSLKPEDTAVYYCAAGKPGAYRYGSIVRFDHWGQGTQVTVSS	low polyreactivity
QVQLVETGGGLVQAGGSLRLSCAASGFIVAEYAMGWYIQAPGKERELVAAITRSGGRTYYADSVKGRFTISRDNAKNTVYLQMNSLKPEDTAVYYCAAGLGYPRLYYWGQGTQVTVSS	high polyreactivity
QGQLVESGGGLVQAGGSLRLSSAASGSTFAHYAMGWYRQAPGKERELVAAISRGGGSTYYADSVKGRFTISRDNAKNTVYVQMNSLKPEDTAVYYCAADPRYRVTLGFDYWGQGTQVTVSS	high polyreactivity
QVQLVESGGGLVQAGGSLRVSCAASGSTFDVNAMGWYRQAPGKERELVAVITSGGSTNYADSVKGRFTISRDNAKNSVYLQMNSLKPEATAVYYCAKDSRTLYDYWGQGTQVTVSS	low polyreactivity
QVQLVESGGGLVQAGGSLRLSCAASGSTYRTYPMGWYRQAPGKERELVASISYRSGRTYYADSVKGRFTISRDNAKNTVYLPMNSLKPEDTAVYYCNSRMYGVISRMDYWGQGTQVTVSS	high polyreactivity
QVQLVESGGGLVQAGGSLRLSCASSGSTFLRNAMGWYRHAPRKERELVAAFSLGSGSTYYADSVKGRFTISRDNAKNTVYLQMNSLKPEDTAVYYCAADVSRWLDYGYDYWGQGTQVTVSS	low polyreactivity
QVQLVESGGGLVQAGGCLRISCAASGSIFPFYVMGRYRQAPGKERELVAAITRSGGSTYYADSVKGRFTISRDNAKNTVYLQMNSLKPEDTAVYYCAKRPHHGSTKYNYWGQGTQVTVSS	low polyreactivity
QVQLVESGGGLVQAGGSLRLSCAASGLTFGTNAMGWSRQAPGKERELVAAISTSSGSTYYSDSVKGRFTISRDNAKNTDYLQMNSLKPEDTAVYYSAAVTVTNLSYYRYYYWGQGTQVTVSS	low polyreactivity
QVQLVESGGGLDQAGGSLRLSCAASGSTFVYYAMGWYRQAPGKERELVAAITASGGGTYYADSVKGSFTISRDNAKNTVYLQMNSLKPEDTAVYYCAANDYWYSRGDNQFYYRGQGTQVTVSS	low polyreactivity
QVQLVESGGGLVQAGGSLRLSCAASGRTFYHYAMGLYRQAPGKERELVAALNRVGGTNYADSVKGRFTISRDNAKNTVYLQMNSLKPEDTAVYYCNADIVARSSYSTKYEEFYYWGLGTQVTVSS	low polyreactivity
QDQLVESGGGLVQAGGSLRLSCAASGSIFNGNAMGWYRPAPGKERELVAAITRRGGRTFYADSVKGRFTISRDNAKNSVYLQMNSLKPEDTAVYYCNAYSKAVQGGYDYWGQGTQVTVSS	high polyreactivity
QVQLVESGGGLVQAGGSLRLSCAASGNTFAYYAMGWYRQAPGKERELVAAITSTGVRTYYADSVKGRFTISRDNAKNTVYFQMNSLKPEDTAVYYCNAEYWRVWYLHYYYEYDYWGQGTQVTVSS	high polyreactivity
QVQLVESGGGLVQAGGSLRISCAASGFTFYSNDMGWYRQAPGKERELVAAISYSGGSTYYADSVKGRFTISRDNAKNTVYLQMNSLKPEDTAVYYCAAGGLQQGDYWGQGTQVTVSS	low polyreactivity
QVQLVESRGGLVQAGGSIRLSCAASGITFGSYAMGWYRQAPGKERELVAAIDTSGDDTYYADSVKGRFTISRDNAKNTVYLQMNSLNPEDTAVYYCNAVSTASDEYDYWGQGTQVTVSS	low polyreactivity

Sequence	polyreactivity (PSR sort gate)
QVQLVESGGGLVQAGGSLRLSCAASGRTFRVYAMGWYRQAPGKERELVAAINGRGGSTYYADSVKGRFTISRDNAKNTVYFQLNSLKPEDTAVYYCNALARTSWRMDYWGQGTQVTVSS	high polyreactivity
QVQLVESGGGLVQAGGSLRLICAASGFIFWIYAMGWYRQAPGKEREFVAVITYRGDTTYYADSVKGRFTISRDNAKNTVYLQMNSLKPEDTAVYYCAAYTVQKYGYWGQGTQVTVSS	low polyreactivity
QVQLVESGGGLVQAGGSLRLSCAASGSIFGGYAMGWYRQAPCQDRELVAAISTRGGSTYYADSVKGRFTISRDNAKNTVYLQMNSQKPEDTAVYYCAADYLDSSYGYVYGWDDYWGQGTQVNVSS	low polyreactivity
QVQLVESGGGLVQAGGSLRLSCAASGSTLRGYTMGWYRQAPGKERELVAAISWSGASTYYADSVKGRFTISRDNAKNTVYLQMNSLKPEDTAVYYCYRAGRYVREYTVDYWGQGTQVTVSS	high polyreactivity
QVQLVESGGGLVQAGGSLRLSCAASGFTFWSYAMGWYRQAPGKERELVAGITIDGNTYYADSVKGRFTISRDNAKNTVYLQMNSLKPEDTAVYYCATPVYRSTYEYDYWGQGTQVTVSS	low polyreactivity
QVQLVESGGGLVQAGGSLRLSCASSGPIFAYNAIPGYRQAPGKERELVADISSGGNTYYADSVKGRFTISRDNAKNTVYLQMNSLKPEDTAVYYCAADIAWYTHDHRIFDYWGQGTQVTVSS	low polyreactivity
QVQLVESGGGLVQAGGSLRLRCAASGSIFKGYAMGSYRQAPGKERELVAAIRGSGGSSYYADSVKGRFTISRDNAKNTVYFQLISLTPEDTAFYYCAAVAYTGGPRKLGFNYWGQATQVTVSS	high polyreactivity
QVQLVESGGGLVQAGGSLRLSCAASGSTFRYYAMGWYRQAPGKERELVAAITRSGSTYYADSVKGRFTISRDNAKNTVYLQMNSLKREDTAVYYCNADQYYGGRYVYLRHYNYWGQGTQVTVSS	high polyreactivity
QVQLVESGGGLVQAGVSLRLSCAASGRIFDRNAMGWYRQAPGKERELVARISRTGGSTYYADSVKGRFTISRDNAKNTVYLQMNSLKPEDTAVYYSAASRGGGYDYWGQGTQVTVSS	high polyreactivity
QVQLVESGGGLVQAGGSLRLSCDASGRIFVRYTMGWYRQATGKERELVAAITRSGGTYYADSVKGRFTISRDNATNTVYLQMNSLKPEDTAVYYCAADSWLSLWYEYWGQGTQVTVSS	low polyreactivity
QVQLVESGGGLVQAGGSLRLSCAASGSTFYRYAMGWYRQAPGKERELVAAISSSGGRTYYADSVKGRFTISRDNAKKTVYLQMNSLKPEDTAVYYCAAKNAAYARYYYWGQGTQVTVSS	high polyreactivity
QVQLVESGGGLVQAGGSLRLSCAASGFFFEINAMGWYRQAPGKERELVAVITNSGGSTYYADSVKGRFTISRDNAKNTVYLQMNSLKPEDTAVYYCAADAVHYTNDWYDYWGQGTQVTVSS	low polyreactivity
QVQLVESGAGLVQAGGSLRLSCASSGYIFDRYAMGWYRQAPGKERELVAAISGRGGSTYYADSVKGRFTISRDNAKYTVYLKMNSLKPEDTAVYYCARDVYVRYGQRARYDSWGQGTQVTVSS	high polyreactivity
QVQLVESGGGLVQAGGSLRLICAASGRIIRYYAMGWYRQAPGKERELVAITSSGGRTYYADSVKGRFSISRDNAKNTVYLQMNSLKPEDTAVYYCAVDSHCPGRGERFIRLDYWGQGTQVTVSS	low polyreactivity
QVQLVESGGGLVQAGGSLRLSCAASGFTFGRNTMGWYRQAPGKERELVAAIDSGGNTYADSVKGRFTISRDNAKNTVYLQMNSLKPEDTAVYYCAVDVGEFSSYGYWGQGTQVTVSS	low polyreactivity
QVQLVESGGGLVQAGGSLRLSCAASGITFNQYAMGWYRQAPGKERELVARITKRGGSTYYADSVKGRFTISRDNAKNTVYLQMNSLKPEDTAVYYCAARTYYQEYDYWGQGTQVTVSS	high polyreactivity
QVQLVESGGGLVQAGGSLRLSCAASGFTFPENAMGWYRQAPGKERELVAAISYRGASTFYADSVKGRFTISRDNAKNTVYLQMNSLKPEDTAVYYCATDPRIRYQGNPYDYWGQGTKVTVSS	high polyreactivity
QVQLVESGGGLVQAGGSLRLSCAASGSMFVVYAMGWYRQGPGKERELVAAISWGIGSTYYADSVKGRFTISRDNAKNTVYLQMNSLKPEDTADYYCAADTDIVLYDYWGQGTQVTVSS	low polyreactivity
QVQLVESGGGLVQAGGSLRLSCAASGRTFYIYAMGWYRQAPGKERELVAAITRIDGSTYYADSVKGRFTISRDNAKNTVYLQMNSLKPEDTAVYYCAAEYGPGLTEGLYYYWGQGTQVTVSS	high polyreactivity
QVQLVESGGGLVQAGGSLRLSCAASGFIFYDYDMGWYRPAPGKERELVAAITYSGGSTYYADSVKGRFTISRDNAKNTVYLQMNSLKPEDTAVYYCAAVKSRYAEAVDYYYWGQGTQVTVSS	low polyreactivity
QVQLVESGGGLVQAGGSLRLSCAASGSTISPYAMGWYRQAPGKEREFVAAISRSGGSTYYADSVKVRFTISRDNAKNTVYLQMNSLKPEDTAVYYCARRYARITPVYPPLNYWGQGTQVTVSS	high polyreactivity
